The values that follow come from US20220177520A1, “PEPTIDES INHIBITING ANDROGEN RECEPTOR ACTIVITY, AND COSMETICS COMPOSITION USING SAME” (SUPADELIXIR INC., priority 2019, published 2022).

Assay [1] has as its target T1, AR and POL II (Homo sapiens, UniProt P10275).
T1 construct: Human keratinocytes (HaCaT) were prepared at a density of 4.5×10^4 cells per well, treated with DHT; endogenous in cells; host or cells: HaCaT human keratinocytes
T1 sequence (P10275 1-920): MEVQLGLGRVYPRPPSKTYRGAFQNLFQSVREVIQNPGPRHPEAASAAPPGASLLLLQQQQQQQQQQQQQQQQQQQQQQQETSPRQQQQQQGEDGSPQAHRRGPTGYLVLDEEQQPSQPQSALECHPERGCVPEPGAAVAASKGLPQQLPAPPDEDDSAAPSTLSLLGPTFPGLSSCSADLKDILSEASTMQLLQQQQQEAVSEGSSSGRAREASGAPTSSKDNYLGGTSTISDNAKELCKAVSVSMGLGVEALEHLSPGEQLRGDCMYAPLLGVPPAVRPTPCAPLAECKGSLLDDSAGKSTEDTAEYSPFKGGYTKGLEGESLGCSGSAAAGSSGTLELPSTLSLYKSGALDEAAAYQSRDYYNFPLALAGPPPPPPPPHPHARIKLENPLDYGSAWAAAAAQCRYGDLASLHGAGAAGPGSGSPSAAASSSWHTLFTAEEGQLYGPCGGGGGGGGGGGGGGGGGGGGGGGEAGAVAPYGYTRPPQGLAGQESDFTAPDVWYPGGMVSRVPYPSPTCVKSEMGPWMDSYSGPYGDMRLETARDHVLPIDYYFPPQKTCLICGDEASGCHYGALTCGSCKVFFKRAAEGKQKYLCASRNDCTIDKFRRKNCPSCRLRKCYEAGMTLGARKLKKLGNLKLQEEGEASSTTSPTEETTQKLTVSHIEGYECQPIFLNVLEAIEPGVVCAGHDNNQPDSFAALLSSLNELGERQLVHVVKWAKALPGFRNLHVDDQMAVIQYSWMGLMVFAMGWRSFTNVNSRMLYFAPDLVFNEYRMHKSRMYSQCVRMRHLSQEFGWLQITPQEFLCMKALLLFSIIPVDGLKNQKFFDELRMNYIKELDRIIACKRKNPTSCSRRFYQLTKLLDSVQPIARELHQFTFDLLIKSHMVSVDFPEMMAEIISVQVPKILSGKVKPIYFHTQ
In words: Physical binding of AR and POL II in DHT-treated human keratinocytes (in situ PLA). The format is cell-based. The settings on record: HaCaT cells, DHT 20 nM plus AR Pep1 20 nM, 1, 10, 100 μM, 24 hours, versus DHT only; FIG. 2. On the procedure: 1. Human keratinocytes (HaCaT) were prepared at a density of 4.5×10^4 cells per well, treated with DHT at a concentration of 20 nM and with AR Pep1 at a concentration of 20 nM, 1, 10, 100 μM respectively, then cultured in an incubator at 37° C. in the presence of 5% CO2 for 24 hours. As a control, one with no treatment at all and one treated only with DHT were used. The cells in each well were washed with PBS, fixed in 2% formaldehyde for five minutes, and treated with 0.1% TritonX-100 for five minutes to enhance antibody permeability into cells. Then, Anti-AR polyclonal antibody (Santa cruz, USA) and Anti-POL II monoclonal antibody (Santa cruz, USA) were added, PLA probe was applied using In situ PLA kit (Sigma-Aldrich), and steps of hybridization, ligation, amplification, and mounting were performed.
2. Luminescence signals (PLA signals) detected from each cell were measured with a confocal laser microscope (Olympus fluoview FW1000; Olympus, Japan), physical interaction between the AR and POL II antibodies was quantified.

Assay [2] deals with androgen receptor. In words: PSA expression in DHT-treated prostate cancer cells (Western blot). The conditions noted are these: LNCaP cells, DHT 20 nM plus AR Pep1 1, 10, 100 μM, 24 hours, versus DHT only; FIG. 1. The format is cell-based. The procedure:
1. Prostate cancer cells (LNCaP) were prepared at a density of 5×10^6 cells per well, treated with DHT at a concentration of 20 nM and with AR Pep1 at a concentration of 1, 10, 100 μM respectively, then cultured in an incubator at 37° C. in the presence of 5% CO2 for 24 hours. As a control group, one with no treatment at all and one treated only with DHT were used. The cancer cells were washed with PBS three times, and lysed with 1% NP40 lysis buffer (1% Nonidet P40, 0.1 M NaCl, 0.05 M tris (pH 8.0), 5 mM EDTA) containing […] PMSP (phenylmethylsulfonyl fluoride), 1 μg/ml pepstatin A, 10 μg/ml leupeptin, 1 μg/ml aprotinin and 1 mM Na3VO4.
2. The cell lysate was quantified using Bradford assay to prepare a protein sample for electrophoresis.
Immunoprecipitates were subjected to 12.5% polyacrylamide gel electrophoresis, then the unfolded protein was transferred onto a nitrocellulose membrane, treated with a blocking solution (Tris-buffered saline (TBS) containing 0.05% Tween 20 and 3% bovine serum albumin) for about one hour at room temperature. Then, the membrane was suspended in TBS buffer containing Anti-PSA polyclonal antibody (Santa cruz, CA, USA) for two hours and washed with TBS buffer containing 0.05% Tween 20. […]

Consider Asp-Lys-Phe (DKF; Peptide 1) [AR Pep1], for which, in assay [1], the “physical interaction between the AR and POL II (PLA signals)” value is on record as “the increase in that interaction was reduced”. Besides, the “expression of prostate-specific antigen (PSA)” value in assay [2] is “expression of the PSA was reduced”.
